For one molecule, p53/DNA complex formation results are on record in PMC2566891 (Nucleic Acids Research, 2008).

The experiment deals with p53/DNA complex (p21 dsDNA). As to the kind of experiment: Electrophoretic mobility shift assay. Type of experiment: binding. Conditions: phosphorylated p53 8 µM, p21 DNA 4 µM, 14-3-3γ 0–20 µM; 0.8% agarose gel.

B1: 14-3-3: recombinant 14-3-3 protein (γ isoform in EMSA, Figure 5A) (protein)
chain: MDDREDLVYQAKLAEQAERYDEMVESMKKVAGMDVELTVEERNLLSVAYKNVIGARRASWRIISSIEQKEENKGGEDKLKMIREYRQMVETELKLICCDILDVLDKHLIPAANTGESKVFYYKMKGDYHRYLAEFATGNDRKEAAENSLVAYKAASDIAMTELPPTHPIRLGLALNFSVFYYEILNSPDRACRLAKAAFDDAIAELDTLSEESYKDSTLIMQLLRDNLTLWTSDMQGDGEEQNKEALQDVEDENQ
In the case of B1, the p53/DNA complex formation entry is “enhanced the p53/DNA complex formation”.
